Measurements taken from the supplement of paper PMC12636428.

Test system: Saccharomyces cerevisiae
Assay: transcriptional activation domain activity (GFP:mCherry ratio, weighted mean of sorted bins, harmonized to initial dataset scale) (arbitrary fluorescence ratio units); higher = stronger transcriptional activation
Conditions: beta-estradiol 1 µM; induction time 4 h
Method in brief: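 Activation activity, the read-weighted mean of bin median fluorescence averaged across barcodes, was linearly mapped onto the scale of the initial dataset. It was measured for barcoded protein tiles fused to an estradiol-inducible synthetic transcription factor at URA3 in GFP-reporter yeast diploids. Cultures diluted 1:5 into SC with 1 uM beta-estradiol were held 4 hours at 30 °C, sorted into 8 bins by GFP:mCherry ratio, and barcode-sequenced, and tiles under 50 reads were discarded.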

## MPTITLAWPERAYFYSLLVVSLLSAKLLHVFSHLTTIPIFLFLLYFPTFLFLD
  transcriptional activation domain activity: 59600

## LTDIQRASKLFRVMQDFRYLRLLVHRITLWIDDQHCASLGTNIYYTFLMRGRF
  transcriptional activation domain activity: 53200

## SLIGIGITILQQLSEISFLPMTTFNISRCLWRLSLLTILACVNFGPSIYIFWF
  transcriptional activation domain activity: 51500

## MFMKHGDVSLGYEVCFCILIIITFGLSFFFFFFFHFFLFFHFWLFVSLLFFSD
  transcriptional activation domain activity: 41900

## MFSFSFPLFLSPLPISLFFLPFALSYSLLSSHLMADICLSSTRWLSSIFFSFF
  transcriptional activation domain activity: 36100

## EDGEQKKQVLACSFCRERKIACGRPSAHSRDRTCNQCARRCMKCEHPTESRRG
  transcriptional activation domain activity: 13800

## RVFLFRLMLSLIYTFLGSLCVTGAVWAYRVNWKVNGNQFVLSWMAIWLFAHCN
  transcriptional activation domain activity: 44800

## PNRRSMGKQDPYCAARLGKEAKKTATDRRGGQTPKWDQELRFTVHDSPDYHQL
  transcriptional activation domain activity: 64200

## LLLFNDEYTHIWSTPSFALKWIYLFARYFPLLFQSTSYYLLTHILSRPPISWS
  transcriptional activation domain activity: 61800

## GKKRRRSSSSSSSSSGSSSSGSSSSSGSDSESDSSSDSSSSSSNSSRSSGSRS
  transcriptional activation domain activity: 24900

## VVKGDEVQIVRGSKKGAEGRVTQVYRKKWVIHVDRVERQKAKEQTVPVPVAAS
  transcriptional activation domain activity: 70900

## SSNGRKSSKRRSRDKDEDEDEDEEDRKRRKRRRERERSKEKEERRSVLTGKKI
  transcriptional activation domain activity: 27200

## VGLYSLCIVSGILFPLYICCWREDFLIQNFVHRSLFTLVFMLLFLLGLIFLEF
  transcriptional activation domain activity: 56900

## GEAGEAGEAGAEGTATEEREEEEEQQQKKEERKRKRKRKQQQGSGKVTVAAAK
  transcriptional activation domain activity: 45000

## PINALCIILSDDSIKALLQEEFPLKQYRDICNKLDVYLSRRRILGILLYMYPT
  transcriptional activation domain activity: 72700

## GEEDAEEEAKPKKGGKRKAEPVKEEDDEPEEAPAKPKRGRKSAKEQVKEEIKE
  transcriptional activation domain activity: 42700

## DQKLPNPDDFANFEARIKLLSYDDRLSFYQRYCLKINMQVYYYVLSYILMLTS
  transcriptional activation domain activity: 53300

## MMKVVGFLYQIYLIIYCVGWWFLLLVLFVFSFSFFFFLFFFFLFFSSTFYSLS
  transcriptional activation domain activity: 43100

## HSKHSAEGIVVSKYLMCFLLFCVWIFTHLVEVAVLLLQIIYNTLFILRSLFLH
  transcriptional activation domain activity: 63800

## GLLSSCVLIVLVIHHPFLLSDNRHYTFYIWRRVYMFHPIVPYALIPAYLACAW
  transcriptional activation domain activity: 66700

## EDEEASAAHAAPPTTTTAGGRGKKKKGGASRKKENSAAPSKSAKASAPANIPP
  transcriptional activation domain activity: 20700

## MFISICICSPYFQGCLAHTFYLFFYWGYLDCSLPPLVLQQRLLLWLLFDSFFI
  transcriptional activation domain activity: 46000

## LWYRFQVVMIRRYHFHFHLLGYRMTYLRFIQFLNIWYFFIAIACLLFIIVIGA
  transcriptional activation domain activity: 46300

## AVGLPNPHAHTLLQSLYYLRSITFSLLRLKMEQRLSLLIPSYLTIWKLDRKAL
  transcriptional activation domain activity: 68400

## AWCHLSVVGRASNLVVYLLIRARKLQLDLGLGFYQRSLLMLCEKLIVVDIFSL
  transcriptional activation domain activity: 63400

## SLSFTPPHSNPPSPSFLLPFPLPFLLPFPPLSFPFPPPFAFPFTPFPPFPFSP
  transcriptional activation domain activity: 38700

## MNQTSCFFSAFFLFALFLSFPSFLLPSFFLLFLLFYFFPSYLLLCLFSLIFYK
  transcriptional activation domain activity: 57200

## ALSAWIIIQGYRVQWKTILLHDNLFVFTAASKSWVFAHAVYRFVLLTLPCFGS
  transcriptional activation domain activity: 40700

## YGVPIPQNSPATTTNLSGSVDEPQYQRRNIDFVRYDEEYVYHEDMDDELTMLH
  transcriptional activation domain activity: 28400

## EEEESAAAAKKMAAVKTRKARAGSPKTKSARKATSTRPTSKTKGGAKAKRAAA
  transcriptional activation domain activity: 20900

## CIVLEKYIGRLLGLPCDMVFSVFTAASTLLYDSQTKEPNPDTSRRLKLCIHWL
  transcriptional activation domain activity: 68500

## LCLLHRWKEFNQPEDVKCAVEYLRHLRGLPLDTFEVSHKVVTILLVQVLGIQV
  transcriptional activation domain activity: 48900

## EQGDTPAKKKARKGASGTGRKRKTVGDDEAAGGNEQEGQPKKKARREKAAATE
  transcriptional activation domain activity: 29300

## YIPVNYFLVVLYSNKEYPGLYKEIEKGLILLYHICTIRNDGTMFLNMKLYKNK
  transcriptional activation domain activity: 36000

## KPEPAGEKAEVANGEGAPEGNRRRPSGRGRGRGRGGRGARGGRDAKEEGAEEA
  transcriptional activation domain activity: 51900

## GALRLAASQEGIKLGDDVKSNVKMVLGKDAQGGFAVSAEVTVSGNGVTKALVD
  transcriptional activation domain activity: 31300

## DETNIHFDSMWCNDEYMKLKDIVDISTPFLPNNSQIFSLQESEYPNPSASTRG
  transcriptional activation domain activity: 136000

## MIHSAIIAWYCVFGLVFLLIVICIFHQFSSHRSSPWYFIQNWTRAFGFLSYIL
  transcriptional activation domain activity: 66700

## LVGLDGRAKINCHFFAYVAFGSASLLVVFHVAFLINVSDVVLLLVMLVGLLRL
  transcriptional activation domain activity: 31900

## LGDQPHIPIPVAFRNIWSFLRVCTLEGFDAKEILPILFALSPGAQLRFIRCRS
  transcriptional activation domain activity: 70800

## RQQDSSQSDRDSSRDSRTRDARHHSRRDGERRQRAESNGNLRPAEESRRGRSE
  transcriptional activation domain activity: 25400

## FVLLFSIFQILFSKSPFVLCVWLISLALIATIKTMYSVLITWHLQFLAFPFYS
  transcriptional activation domain activity: 54400

## SCFIFLGHHFDVFVSFLLKIGLGDEMLGVLWFFFSCVLLVGAFLLRLLGFYHT
  transcriptional activation domain activity: 67900

## FVTFVFCPPLLAFAHRFGRKVLKRIILALLAFHLVIVLLSSAIMSPYDELHPK
  transcriptional activation domain activity: 34300

## HLGFRYWLLSATEIVNTIFLPSVIAYLYTVYIRFLLTYWLSYAIIAGSFMILF
  transcriptional activation domain activity: 53000

## YADWLLEPEQNNGTWVSDVLWPAINLDLQWISLHWNESSWDLWWPPVWGGSYW
  transcriptional activation domain activity: 52100

## DSSFDLNMNLDLNLNLDSNFNIALNRSDSSGSTMNLDYKLPESANNYTYSSGS
  transcriptional activation domain activity: 90700

## CLLGTGSFWGLVYISLAYMDGFAFKYLLQFHHIIKLLWISTVGGLIMIAFWSF
  transcriptional activation domain activity: 52900

## LNCLDLSGIDCCLFFMALRLEVLYSWFLFLAWQLLCTHPALLAFAFGFLGFLI
  transcriptional activation domain activity: 51600

## LCLRLMIKVAFSGEDTEVDFSMLQVAVRYILGIHGVNTLAPAWTFWGKCLDSM
  transcriptional activation domain activity: 37000

## LQKTVNLKNIMKVSDPYVPTRNTFNYDVKISNDFFDNGDNLYGNDEEVLFYED
  transcriptional activation domain activity: 61500

## GEAQARANADAQADAGEVPEKGKKKRRHKEGGGDGEGKKKKRKEKQTEPEEGA
  transcriptional activation domain activity: 24700

## FHSLLSPFHASFLSLFYPHSLSCFYLFPFLHAFVFLFHFRCGFLGVSCILLSA
  transcriptional activation domain activity: 73200

## MRLVYFCAGIYFLVADLVFSLFLFSFSSLLTLFFSPFFSLSLGLTLLEIQFTF
  transcriptional activation domain activity: 51800

## MLLICMSVWLCALSLCILRCRENFFVLMGDVFFFLASMWYGTVSQFVRRPLFH
  transcriptional activation domain activity: 48100

## SKFASSGLFGVDVYSVWKRATEKISDGNNTTDSNQKHHPYHNHPSNDSGNEKN
  transcriptional activation domain activity: 41500

## TRGAPPAPPPPPPPPARPSESGAPPPPPPPPARGAPPPPPPPPPPAGGAPPPP
  transcriptional activation domain activity: 36500

## CNVLCYGYNVVLLVMKLYVKRVFVSPRGVRQPLVLAPYEHTLYIRFSCQPITD
  transcriptional activation domain activity: 29300

## MMLVGVVAFNVLKVIPVSDPRCIGVLLVGYVFQGLGFFMTFFYLAIYILRIMT
  transcriptional activation domain activity: 43600

## VIGGGATGSGVAVDAASRGLKVALVERDDFSSGTSSKSTKLVHGGVRYLQKAV
  transcriptional activation domain activity: 69700

## PKPVPEQEMKDAAEKPEPEETKAAGEVKPEDAMEVDQTSKPAKSKKGKIVKRR
  transcriptional activation domain activity: 24400

## VRNNSENASHNNETGPIETELAQTISNEFWTAYNLGWEELMSQPDYKYLFDTQ
  transcriptional activation domain activity: 117000

## LRWVRSNWRSNLTSLSELHMWWNYPWSLYAVFQTTITQWAFLLDCLLFACFYF
  transcriptional activation domain activity: 33700

## QPSAFGQTNTATNAFGQPQQQSAFGSTPTTGAFGSTNTAFGQNRPAFGSTTTP
  transcriptional activation domain activity: 23600

## MGASLRVQIWVCIRLELCCSWIWFLASFGILFFFFCFCPLRTSLHSFPLPLYI
  transcriptional activation domain activity: 47800

## FLLLFFFFVYFHLSFSFLTFLLSPLFVFIFMFYFGSFIFLPLSLFLFSLLFFS
  transcriptional activation domain activity: 66100

## QKLSWIDNSGFRWLIMPFIWSSFFIQWLAVFFEICIVILQLRVIAWWLGWLVC
  transcriptional activation domain activity: 60700

## MHSPHNCRVSKHFVIFCFFFFFFLFCRPLPLLSNLILTLFFSSFFLLGLFGVL
  transcriptional activation domain activity: 64700

## KGRDEEDFPLDYFPVSVEYPTEENAFDPFPPQAFTPAAPSMPISYDNVNERDS
  transcriptional activation domain activity: 33400

## VLLITLILSSRINITPVVHVNPSFSTVHLIIIPHFLCNIITLLIYFIVCWGST
  transcriptional activation domain activity: 56800

## HCCRLLFLLFLFLFFFLLLFICFFLRLLRLLFPHRNTNLTRPIADPIIPIIPP
  transcriptional activation domain activity: 46900

## AFLLFLIYLTLFCWVCFATSSTWVWSEILSDGQYTESFMPVNYVLLAVLSGII
  transcriptional activation domain activity: 49600

## FRVASYRIWCLLGCGSVWSLIYVPLAWNDGFSLFYLLHPWKIVRVFILNVLAG
  transcriptional activation domain activity: 54700

## SGGAPRGRGRGRREEKGRGRGRERGGRGRGGDRGRGRGRGRGVGGGSMGGGGG
  transcriptional activation domain activity: 15900

## NQAQPSTSGGFGQPSAFGSATPSSSAFGGGAASTPTQPSAFGASTTPAAAPTA
  transcriptional activation domain activity: 8250

## NCTNLPSVVVVGGSVPIDSQGLQIWSLLIYSIVLVPGLNLVVSSLIFLGIFWL
  transcriptional activation domain activity: 30000

## KLIFIFFFFYFFSFFVLLLLLLFLLLLFLPLLMATSACMLGLMFDKLPFFSNI
  transcriptional activation domain activity: 46300

## TSCFSFLVFSFIFLSLGIMMWSLGQELLWYFVFFCLVWIFLLVVCLFIIEYSE
  transcriptional activation domain activity: 32500

## VPRKLTASIHHPVEGLFYGTYWVSISLILNCAHAYGVPSSGPWLVRALEVCFW
  transcriptional activation domain activity: 64800

## LPVYQLSVSPWKSKEAMDAWCMAKIESLLLDFKFLNAWVQLLVANNLQQIHIP
  transcriptional activation domain activity: 63900

## FIVVLLTMEVIIHYLYMVAIFHVKPDWSQFTAAQLSMMGFLNLKHIWLKLLIP
  transcriptional activation domain activity: 39000

## DSDTRRRGGEGGHRMRSSIACTRCRRSKIKCENQGVGSQCKACHGQGRECTYP
  transcriptional activation domain activity: 31300

## SLFLSFFIFPLFLFFYFFSFFFDLFIVCMVHLFLGKDLYLFGYQKVLFCFCLC
  transcriptional activation domain activity: 65700
